Reference: patent US6972319B1, “Pituitary adenylate cyclase activating peptide (PACAP)receptor 3 (R3) agonists and their pharmacological methods of use” (priority 1999, dated 2005)
No end group written: not given here.

T1: PACAP-R3 (human, UniProt P41587 24-438)
T1 sequence (looked up): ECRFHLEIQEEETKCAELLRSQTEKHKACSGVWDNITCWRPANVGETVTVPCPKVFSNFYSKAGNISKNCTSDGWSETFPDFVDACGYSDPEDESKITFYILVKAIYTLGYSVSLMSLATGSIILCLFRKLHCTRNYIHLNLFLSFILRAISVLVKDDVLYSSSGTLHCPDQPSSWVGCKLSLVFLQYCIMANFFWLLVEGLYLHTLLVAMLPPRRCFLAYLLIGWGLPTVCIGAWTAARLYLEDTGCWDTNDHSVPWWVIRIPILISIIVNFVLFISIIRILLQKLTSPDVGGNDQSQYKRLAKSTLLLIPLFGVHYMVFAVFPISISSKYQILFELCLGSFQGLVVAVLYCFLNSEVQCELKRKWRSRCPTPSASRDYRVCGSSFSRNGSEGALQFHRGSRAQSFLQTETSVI


target: T1, PACAP-R3; assay: cell-based or functional assay

R3 EC50 [pM] | R3 Selectivity | Binder
60 | 40 | HSDAVFTDNYTRLRKQVAAKKYLQSILKKR [R3P84]
200 | 3 | HSDAVFTDNYTRLRKQVAVKKYLQSILKKRY [R3P87]
20 | 100 | HSDAVFTDNYTRLRKQVAAKKYLQSILNKRY [R3P92]
80 | 60 | HSDAVFTDNYTRLRKQVAAKKYLQSILKKRY [R3P83]
400 | 23 | HSDAVFTDNYTRLRKQVAVKKYLQSIKNKRY [R3P82]
500 |  | HSDAVFTDNYTRLRKQVAAKKYLNSIKNKRY [R3P79]
1000 | 400 | HSDAVFTDNYTRLRKQMAGKKYLNSIKNKR [R3P101]
500 | 100 | HSDAVFTDNYTRLRKQVAVKKYLQSIKKK [R3P81]
50 | 8 | HSDAVFTDNYTRLRKQMAIKKYLNSIKNKR [R3P103]
60000 | 5 | HSDAVFTDNYTRLRKQMAHKKYLNSIKNKR [R3P102]
140 | 40 | HSDAVFTDNYTRLRKQVAAKKYLQSILNKR [R3P93]
300 | 30 | HSDAVFTDNYTRLRKQMAFKKYLNSIKNKR [R3P100]
440 |  | HSDAVFTDNYTRLRKQVAVKKYLQSIKKKR [R3P80]
200 | 500 | HSDAVFTDNYTRLRKQMAKKKYLNSIKNKR [R3P104]
60 | 15 | HSDAVFTDNYTRLRKQVAVKKYLQSILKK [R3P89]
1000 | 40 | HSDAVFTDNYTRLRKQMAEKKYLNSIKNKR [R3P99]
180 | 30 | HSDAVFTDNYTRLRKQVAAKKYLQSILKK [R3P85]
1100 | 230 | HSDAVFTDNYTRLRKQVAAKKYLNSIKKKR [R3P78]
90 | 100 | HSDAVFTDNYTRLRKQVAAKKYLQSILNK [R3P94]
80 | 12 | HSDAVFTDNYTRLRKQVAVKKYLQSILKKR [R3P88]
300 | 3 | HSDAVFTDNYTRLRKQMALKKYLNSIKNKR [R3P105]
800 | 110 | HSDAVFTDNYTRLRKQVAAKKYLQSIKNK [R3P86]

Continued, binder first:

Binder | R3 EC50 [pM] | R3 Selectivity
HSDAVFTENYTKLRKQLAAKKYLNDLKK [R3P5] | 7000 | 30
HSDAVFTDNYTRLRKQVAAKKYLQSIKNKRY [R3P66] | 400 | 250
HSDAVFTDNYTRLRKQMAAKKYLQSIKNKRY [R3P69] | 500 | 190
HSDAVFTDNYTRLRKQLAAKKYLNTIKNKRY [R3P67] | 300 | 330
HSDAVFTDNYTRLRKQMAAHKYLNSIKNKRY [R3P73] | 300 | 170
HSDAVFTDNYTRLRKQMAAKKYLNTIKNKRY [R3P70] | 400 | > 250
HSDAVFTDNYTRLRKQVAAKKYLNSIKNKRY [R3P68] | 500 | 
HSDAVFTDNYTRLRKQMAAKHYLNSIKNKRY [R3P74] | 600 | 150
HSDAVFTDQYTRLRKQMAAKKYLNSIKNKRY [R3P71] | 90 | 660
HSDAVFTDQYTRLRKQLAAKKYLNTIKNKRY [R3P72] | 160 | > 600
HSDAVFTDQYTRLRKQLAAHKYLNTIKNKRY [R3P75] | 300 | > 500
HSDGIFTDSYSRYRKQMAVKKYLAAVKQGGT-NH2 [R3P16] | 10000 | 1.4
HSDGIFTDSYSRYRKQLAAKKYLADVKKGGT [R3P37] | 4000 | 18
HSDAVFTDNYTRLRKQMAVKKYLNSIKK-NH2 [R3P8] | 1400 | 1.5
HSDGIFTDSYSRYRKQLAVKKYLAAVKK [R3P39] | 500 | 2
HSDGIFTDSYSRYRKQLAAKKYLADVKK [R3P38] | 2300 | 7
HSDAVFTDNYTRLRKQMAAKKYLNSIKNKR [R3P65] | 600 | 130
HSDAVFTDNYTRLRKQLAAKKYLNDILKGGT [R3P23] | 430 | 23
HSDAVFTDNYTRLRKQLAAKKYLNDILNGGT [R3P27] | 800 | 8
HSDAVFTDNYTRLRKQLAVKKYLNDILKGGT [R3P28] | 7000 | 1
HSDGIFTESYSRYRKQMAVKKYLAALKKKRYKQRVKNK [R3P6] | 80000 | 3
HSDAVFTDNYTRLRKQVAAKKYLQSIKKKR [R3P77] | 400 | 500
HSDAVFTENYTRLRKQMAVKKYLNSLKK-NH2 [R3P7] | 4000 | 0.5
HSDAVFTENYTKLRKQLAAKKYLNDLKKGGT [R3P3] | 750 | 130
HSDAVFTENYTKLRKQLAAKKYLNDLLNGGT [R3P10] | 11000 | 0.3
HSDGIFTDSYSRYRKQMAVKKYLAAVKK [R3P40] | 700 | 2
HSDGIFTDSYSRYRKQMAVKKYLAAVKKYLAAVRHG-NH2 [R3P17] | 4000 | 2
HSDAVFTDNYTRLRKQVAAKKYLNSIKK [R3P62] | 1800 | 100
HSDAVFTDNYTRLRKQMAVKKYLNSIKKGGT [R3P9] | 2000 | 20
